Key:
Human CD3eg linker = target: T1, Human CD3eg linker (human); experiment: affinity relative to template H183/L072, single-mutation scan
T1 construct: Single chain: CD3 epsilon and gamma subunits joined by a 29-mer linker, Flag-tag at the C-terminus; also called recombinant human CD3
T1 chain: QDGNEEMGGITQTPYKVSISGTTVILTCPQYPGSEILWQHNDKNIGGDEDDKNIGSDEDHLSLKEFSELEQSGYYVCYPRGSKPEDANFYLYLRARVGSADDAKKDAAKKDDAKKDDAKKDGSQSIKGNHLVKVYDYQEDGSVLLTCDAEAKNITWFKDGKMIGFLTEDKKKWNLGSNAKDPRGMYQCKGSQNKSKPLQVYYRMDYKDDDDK

Human CD137 ECD = target: T2, Human CD137 ECD (human); experiment: SPR (Biacore), affinity of single-mutation variant against parental H183/L072
T2 construct: also called human CD137 extracellular domain; hCD137
T2 sequence (chain, as listed by the source limits assumed): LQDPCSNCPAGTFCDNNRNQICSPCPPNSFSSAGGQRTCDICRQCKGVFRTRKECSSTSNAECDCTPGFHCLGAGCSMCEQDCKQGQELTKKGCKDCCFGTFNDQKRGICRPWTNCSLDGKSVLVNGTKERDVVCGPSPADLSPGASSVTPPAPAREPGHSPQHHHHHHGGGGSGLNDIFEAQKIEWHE

B1: H183/L072 with P56Y (Kabat) in VL dBBDu072L (antibody, name in Kabat numbering, V domains shown)
VH: QVQLVESGGGLVQPGRSLRLSCAASGFTFSNAWMHWVRQAPGKGLEWVAQIKDKGNAYAAYYAPSVKGRFTISRDDSKNSIYLQMNSLKTEDTAVYYCHYVHYASASTVLPAFGVDAWGQGTTVTVSS
VL: DIVMTQSPLSLPVTPGEPASISCQASQELVHMNRNTYLHWYQQKPGQAPRLLIYKVSNRFYGVPDRFSGSGSGTDFTLKISRVEAEDVGVYYCAQGTSVPFTFGQGTKLEIK
notes: Single-mutation variant of H183L072
fold change of affinity for CD3 (Human CD3eg linker): 2.7 fold

B2: Dual-Fab H183/L072 variant with single light chain mutation T97Y (Kabat) (antibody, name in Kabat numbering, V domains shown)
VH: QVQLVESGGGLVQPGRSLRLSCAASGFTFSNAWMHWVRQAPGKGLEWVAQIKDKGNAYAAYYAPSVKGRFTISRDDSKNSIYLQMNSLKTEDTAVYYCHYVHYASASTVLPAFGVDAWGQGTTVTVSS
VL: DIVMTQSPLSLPVTPGEPASISCQASQELVHMNRNTYLHWYQQKPGQAPRLLIYKVSNRFPGVPDRFSGSGSGTDFTLKISRVEAEDVGVYYCAQGTSVPFYFGQGTKLEIK
notes: expressed as an antibody in Expi293 and purified on Protein A; also called dBBDu183H / dBBDu072L T97Y
fold change of affinity for CD137 (Human CD137 ECD): 0.3 fold

B3: Dual-Fab H183/L072 variant with single light chain mutation R54Y (Kabat) (antibody, name in Kabat numbering, V domains shown)
VH: QVQLVESGGGLVQPGRSLRLSCAASGFTFSNAWMHWVRQAPGKGLEWVAQIKDKGNAYAAYYAPSVKGRFTISRDDSKNSIYLQMNSLKTEDTAVYYCHYVHYASASTVLPAFGVDAWGQGTTVTVSS
VL: DIVMTQSPLSLPVTPGEPASISCQASQELVHMNRNTYLHWYQQKPGQAPRLLIYKVSNYFPGVPDRFSGSGSGTDFTLKISRVEAEDVGVYYCAQGTSVPFTFGQGTKLEIK
notes: expressed as an antibody in Expi293 and purified on Protein A; also called dBBDu183H / dBBDu072L R54Y
fold change of affinity for CD137 (Human CD137 ECD): 0.2 fold

B4: Dual-Fab H183/L072 variant with single light chain mutation T92Y (Kabat) (antibody, name in Kabat numbering, V domains shown)
VH: QVQLVESGGGLVQPGRSLRLSCAASGFTFSNAWMHWVRQAPGKGLEWVAQIKDKGNAYAAYYAPSVKGRFTISRDDSKNSIYLQMNSLKTEDTAVYYCHYVHYASASTVLPAFGVDAWGQGTTVTVSS
VL: DIVMTQSPLSLPVTPGEPASISCQASQELVHMNRNTYLHWYQQKPGQAPRLLIYKVSNRFPGVPDRFSGSGSGTDFTLKISRVEAEDVGVYYCAQGYSVPFTFGQGTKLEIK
notes: expressed as an antibody in Expi293 and purified on Protein A; also called dBBDu183H / dBBDu072L T92Y
fold change of affinity for CD137 (Human CD137 ECD): 0 fold

B5: H183/L072 with R54Y (Kabat) in VL dBBDu072L (antibody, name in Kabat numbering, V domains shown)
VH: QVQLVESGGGLVQPGRSLRLSCAASGFTFSNAWMHWVRQAPGKGLEWVAQIKDKGNAYAAYYAPSVKGRFTISRDDSKNSIYLQMNSLKTEDTAVYYCHYVHYASASTVLPAFGVDAWGQGTTVTVSS
VL: DIVMTQSPLSLPVTPGEPASISCQASQELVHMNRNTYLHWYQQKPGQAPRLLIYKVSNYFPGVPDRFSGSGSGTDFTLKISRVEAEDVGVYYCAQGTSVPFTFGQGTKLEIK
notes: as for B1
fold change of affinity for CD3 (Human CD3eg linker): 1.6 fold

B6: Dual-Fab H183/L072 variant with single light chain mutation Q90Y (Kabat) (antibody, name in Kabat numbering, V domains shown)
VH: QVQLVESGGGLVQPGRSLRLSCAASGFTFSNAWMHWVRQAPGKGLEWVAQIKDKGNAYAAYYAPSVKGRFTISRDDSKNSIYLQMNSLKTEDTAVYYCHYVHYASASTVLPAFGVDAWGQGTTVTVSS
VL: DIVMTQSPLSLPVTPGEPASISCQASQELVHMNRNTYLHWYQQKPGQAPRLLIYKVSNRFPGVPDRFSGSGSGTDFTLKISRVEAEDVGVYYCAYGTSVPFTFGQGTKLEIK
notes: expressed as an antibody in Expi293 and purified on Protein A; also called dBBDu183H / dBBDu072L Q90Y
fold change of affinity for CD137 (Human CD137 ECD): 0 fold

B7: Dual-Fab H183/L072 variant with single light chain mutation S93Y (Kabat) (antibody, name in Kabat numbering, V domains shown)
VH: QVQLVESGGGLVQPGRSLRLSCAASGFTFSNAWMHWVRQAPGKGLEWVAQIKDKGNAYAAYYAPSVKGRFTISRDDSKNSIYLQMNSLKTEDTAVYYCHYVHYASASTVLPAFGVDAWGQGTTVTVSS
VL: DIVMTQSPLSLPVTPGEPASISCQASQELVHMNRNTYLHWYQQKPGQAPRLLIYKVSNRFPGVPDRFSGSGSGTDFTLKISRVEAEDVGVYYCAQGTYVPFTFGQGTKLEIK
notes: expressed as an antibody in Expi293 and purified on Protein A; also called dBBDu183H / dBBDu072L S93Y
fold change of affinity for CD137 (Human CD137 ECD): 0.8 fold

B8: H183/L072 with S52Y (Kabat) in VL dBBDu072L (antibody, name in Kabat numbering, V domains shown)
VH: QVQLVESGGGLVQPGRSLRLSCAASGFTFSNAWMHWVRQAPGKGLEWVAQIKDKGNAYAAYYAPSVKGRFTISRDDSKNSIYLQMNSLKTEDTAVYYCHYVHYASASTVLPAFGVDAWGQGTTVTVSS
VL: DIVMTQSPLSLPVTPGEPASISCQASQELVHMNRNTYLHWYQQKPGQAPRLLIYKVYNRFPGVPDRFSGSGSGTDFTLKISRVEAEDVGVYYCAQGTSVPFTFGQGTKLEIK
notes: as for B1
fold change of affinity for CD3 (Human CD3eg linker): 1.5 fold

B9: Dual-Fab H183/L072 variant with single light chain mutation V51Y (Kabat) (antibody, name in Kabat numbering, V domains shown)
VH: QVQLVESGGGLVQPGRSLRLSCAASGFTFSNAWMHWVRQAPGKGLEWVAQIKDKGNAYAAYYAPSVKGRFTISRDDSKNSIYLQMNSLKTEDTAVYYCHYVHYASASTVLPAFGVDAWGQGTTVTVSS
VL: DIVMTQSPLSLPVTPGEPASISCQASQELVHMNRNTYLHWYQQKPGQAPRLLIYKYSNRFPGVPDRFSGSGSGTDFTLKISRVEAEDVGVYYCAQGTSVPFTFGQGTKLEIK
notes: expressed as an antibody in Expi293 and purified on Protein A; also called dBBDu183H / dBBDu072L V51Y
fold change of affinity for CD137 (Human CD137 ECD): 0.2 fold

Source: patent US20210388087A1 (Chugai, published 2021)
